# Test results from patent US20030224500A1, “Modified MEK1 and MEK2, crystal of a peptide: ligand: cofactor complex containing such modified MEK1 or MEK2, and methods of use thereof” (priority 2001, published 2003).
# T1: glutathione-S-transferase fusion protein of kinase-inactive ERK1 (GSTERK1K71R), P27361
# T1 chain: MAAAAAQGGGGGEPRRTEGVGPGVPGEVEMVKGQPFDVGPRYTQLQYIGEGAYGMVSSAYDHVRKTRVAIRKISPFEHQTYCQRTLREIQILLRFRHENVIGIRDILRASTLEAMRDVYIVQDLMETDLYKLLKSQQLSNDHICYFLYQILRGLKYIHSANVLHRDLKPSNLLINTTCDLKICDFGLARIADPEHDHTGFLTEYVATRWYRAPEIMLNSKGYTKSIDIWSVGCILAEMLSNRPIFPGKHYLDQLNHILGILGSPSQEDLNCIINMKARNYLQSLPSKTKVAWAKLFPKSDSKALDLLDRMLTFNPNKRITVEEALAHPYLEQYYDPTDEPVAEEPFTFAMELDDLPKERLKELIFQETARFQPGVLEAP
# Legend:
# [1] = system: glutathione-S-transferase fusion protein of kinase-inactive ERK1 (GSTERK1K71R); experiment: Kinase activity of the modified MEK1 peptides, GSTERK1K71R substrate, [γ-32P]ATP; format: biochemical; settings: after Raf activation; 50 ng modified MEK peptide, 10 μM ATP, room temperature 20 minutes; initial experiments
# Experimental: The modified MEK peptides (50 ng) were assayed in 20 mM HEPES (N-2-hydroxyethyl-piperazine-N′-2-ethanesulfonic acid) pH 7.5, 10 mM MgCl2, […] (ethylene glycol bis(2-aminoethyl ether)-N,N,N′N′-tetraacetic acid), 10 μM ATP, with 5 μCi [γ-^32P] ATP. Appropriate samples had 0.5 units of Raf-1 (UBI) added, and the reaction started with the addition of 1 μg GSTERK1 (K71R). The reactions were incubated at room temperature for 20 minutes, then quenched with 5 μl 6×Laemmli sample buffer. The samples were then resolved by SDS-PAGE, and the phosphoproteins visualized by autoradiography. Radiolabel incorporated into ERK was quantitated by excision of the protein band from the gel and counting in a standard scintillation counter. Initial experiments with the modified MEK1 s generated the following specific activities in units of pmol PO4 min-1 mg-1 after Raf activation: WT: 8380.6, WTsPR: 40.1, C1FL: 773.3, ClsPR: 35.9, C2FL: 537.5, C2sPR: 24.1, C3FL: 441.7 and C3sPR: 26.9.
# [2] = system: colon carcinomas of both mouse and human origin; settings: cited from earlier work
# MAPK = settings: correlated with efficacy; cited from earlier work
# [3] = target: T1, glutathione-S-transferase fusion …
Molecule,specific activities [1] [pmol PO4 min-1 mg-1],specific activity after Raf activation (32P incorporated into ERK) [3],other results
C2FL: NH2-terminally truncated MEK1 having peptide of amino acid residues 62 to 393 of SEQ ID NO: 2,537.5,–,–
"O=C(NOCC1CC1)c1ccc(F)c(F)c1Nc1ccc(I)cc1Cl [2-(2-chloro-4-iodo-phenylamino)-N-cyclopropylmethoxy-3,4-difluoro-benzamide]",–,–,"tumor growth inhibited ([2]; mice with colon carcinomas of both mouse and human origin, after treatment with inhibitor): ≤ 80%; toxicity ([2]; wide range of doses, mice): no signs of toxicity; levels of MAPK in excised tumors (MAPK): reduction in levels of MAPK"
C1FL: NH2-terminally truncated MEK1 encoding amino acids 51-393 of SEQ ID NO: 2,773.3,–,–
C3FL: NH2-terminally truncated MEK1 having peptide of amino acid residues 42 to 393 of SEQ ID NO: 2,441.7,–,–
"WT: Wild-type human MEK1, full-length peptide of SEQ ID NO: 2, expressed in E. coli",8380.6,–,–
MEK1 (wt)(d280-323) (protein) MPKKKPTPIQLNPAPDGSAVNGTSSAETNLEALQKKLEELELDEQQRKRLEAFLTQKQKVGELKDDDFEKISELGAGNGGVVFKVSHKPSGLVMARKLIHLEIKPAIRNQIIRELQVLHECNSPYIVGFYGAFYSDGEISICMEHMDGGSLDQVLKKAGRIPEQILGKVSIAVIKGLTYLREKHKIMHRDVKPSNILVNSRGEIKLCDFGVSGQLIDSMANSFVGTRSYMSPERLQGTHYSVQSDIWSMGLSLVEMAVGRYPIPPPDAKELELMFGCQVKLPSGVFSLEFQDFVNKCLIKNPAERADLKQLMVHAFIKRSDAEEVDFAGWLCSTIGLNQPSTPTHAAGV,40.1,WTsPR: 40.1,–
MEK1-C1 (d280-323) (protein) EAFLTQKQKVGELKDDDFEKISELGAGNGGVVFKVSHKPSGLVMARKLIHLEIKPAIRNQIIRELQVLHECNSPYIVGFYGAFYSDGEISICMEHMDGGSLDQVLKKAGRIPEQILGKVSIAVIKGLTYLREKHKIMHRDVKPSNILVNSRGEIKLCDFGVSGQLIDSMANSFVGTRSYMSPERLQGTHYSVQSDIWSMGLSLVEMAVGRYPIPPPDAKELELMFGCQVKLPSGVFSLEFQDFVNKCLIKNPAERADLKQLMVHAFIKRSDAEEVDFAGWLCSTIGLNQPSTPTHAAGV,35.9,ClsPR: 35.9,–
MEK1-C3 (d280-323) (protein) LDEQQRKRLEAFLTQKQKVGELKDDDFEKISELGAGNGGVVFKVSHKPSGLVMARKLIHLEIKPAIRNQIIRELQVLHECNSPYIVGFYGAFYSDGEISICMEHMDGGSLDQVLKKAGRIPEQILGKVSIAVIKGLTYLREKHKIMHRDVKPSNILVNSRGEIKLCDFGVSGQLIDSMANSFVGTRSYMSPERLQGTHYSVQSDIWSMGLSLVEMAVGRYPIPPPDAKELELMFGCQVKLPSGVFSLEFQDFVNKCLIKNPAERADLKQLMVHAFIKRSDAEEVDFAGWLCSTIGLNQPSTPTHAAGV,26.9,C3sPR: 26.9,–
MEK1-C2 (d280-323) (protein) ELKDDDFEKISELGAGNGGVVFKVSHKPSGLVMARKLIHLEIKPAIRNQIIRELQVLHECNSPYIVGFYGAFYSDGEISICMEHMDGGSLDQVLKKAGRIPEQILGKVSIAVIKGLTYLREKHKIMHRDVKPSNILVNSRGEIKLCDFGVSGQLIDSMANSFVGTRSYMSPERLQGTHYSVQSDIWSMGLSLVEMAVGRYPIPPPDAKELELMFGCQVKLPSGVFSLEFQDFVNKCLIKNPAERADLKQLMVHAFIKRSDAEEVDFAGWLCSTIGLNQPSTPTHAAGV,24.1,C2sPR: 24.1,–
